Laboratory results as given in publication PMC13041742, “Nonlinear stiffness of NompC gating spring and its implication in mechanotransduction” (Science Advances, 2026).

Biological target: the molecule itself
Assay: negative-stain EM with 2D class averaging; purified NompC-Δ12; raw micrographs and 2D class averages

B1: NompC-Δ12 (complex, Drosophila, UniProt E0A9E1 1-1732, looked up)
chain: MSQPRGGRGGGRGGGVGRKTPSSLTGPPDESATPSERATPASKADSDPKDDSSSNGDKKDMDLFPAPKPPSAGASIRDTANKVLGLAMKSEWTPIEAELKKLEKYVANVGEDGNHIPLAGVHDMNTGETPLHMACRACHPDIVRHLIETVKEKHGPDKATTYINSVNEDGATALHYTCQITKEEVKIPESDKQIVRMLLENGADVTLQTKTALETAFHYCAVAGNNDVLMEMISHMNPTDIQKAMNRQSSVGWTPLLIACHRGHMELVNNLLANHARVDVFDTEGRSALHLAAERGYLHVCDALLTNKAFINSKSRVGRTALHLAAMNGFTHLVKFLIKDHNAVIDILTLRKQTPLHLAAASGQMEVCQLLLELGANIDATDDLGQKPIHVAAQNNYSEVAKLFLQQHPSLVNATSKDGNTCAHIAAMQGSVKVIEELMKFDRSGVISARNKLTDATPLQLAAEGGHADVVKALVRAGASCTEENKAGFTAVHLAAQNGHGQVLDVLKSTNSLRINSKKLGLTPLHVAAYYGQADTVRELLTSVPATVKSETPTGQSLFGDLGTESGMTPLHLAAFSGNENVVRLLLNSAGVQVDAATIENGYNPLHLACFGGHMSVVGLLLSRSAELLQSQDRNGRTGLHIAAMHGHIQMVEILLGQGAEINATDRNGWTPLHCAAKAGHLEVVKLLCEAGASPKSETNYGCAAIWFAASEGHNEVLRYLMNKEHDTYGLMEDKRFVYNLMVVSKNHNNKPIQEFVLVSPAPVDTAAKLSNIYIVLSTKEKERAKDLVAAGKQCEAMATELLALAAGSDSAGKILQATDKRNVEFLDVLIENEQKEVIAHTVVQRYLQELWHGSLTWASWKILLLLVAFIVCPPVWIGFTFPMGHKFNKVPIIKFMSYLTSHIYLMIHLSIVGITPIYPVLRLSLVPYWYEVGLLIWLSGLLLFELTNPSDKSGLGSIKVLVLLLGMAGVGVHVSAFLFVSKEYWPTLVYCRNQCFALAFLLACVQILDFLSFHHLFGPWAIIIGDLLKDLARFLAVLAIFVFGFSMHIVALNQSFANFSPEDLRSFEKKNRNRGYFSDVRMHPINSFELLFFAVFGQTTTEQTQVDKIKNVATPTQPYWVEYLFKIVFGIYMLVSVVVLINLLIAMMSDTYQRIQAQSDIEWKFGLSKLIRNMHRTTTAPSPLNLVTTWFMWIVEKVKARMKKKKRPSLVQMMGIRQASPRTKAGAKWLSKIKKDSVALSQVHLSPLGSQASFSQANQNRIENVADWEAIAKKYRALVGDEEGGSLKDSDAESGSQEGSGGQQPPAQVGRRAIKATLADTTK
notes: NompC (no mechanoreceptor potential C), Drosophila, NP_001245891.1, lacking the N-terminal 12 ankyrin repeats (amino acids 126 to 533); Full-length NompC with an internal deletion of residues 126-533; also called truncated NompC-Δ12; NompC complex with the N-terminal 12 ARs removed; not shown: SpyTag, N-terminal, kept; enhanced green fluorescent protein (after a 3C cleavage site), C-terminal, …
stoichiometry N: 4
